No end group written: not given here.
What was measured:
GRPR = molecular target: T1, GRPR (UniProt P30550 1-384, limits assumed); assay: co-immunofluorescence on HSC-4 cells
T1 construct: whole, on cells

DSG3 = molecular target: T2, DSG3 (UniProt P32926 50-999, limits assumed); assay: co-immunofluorescence on HSC-4 cells
T2 construct: whole, on cells
T2 sequence (looked up): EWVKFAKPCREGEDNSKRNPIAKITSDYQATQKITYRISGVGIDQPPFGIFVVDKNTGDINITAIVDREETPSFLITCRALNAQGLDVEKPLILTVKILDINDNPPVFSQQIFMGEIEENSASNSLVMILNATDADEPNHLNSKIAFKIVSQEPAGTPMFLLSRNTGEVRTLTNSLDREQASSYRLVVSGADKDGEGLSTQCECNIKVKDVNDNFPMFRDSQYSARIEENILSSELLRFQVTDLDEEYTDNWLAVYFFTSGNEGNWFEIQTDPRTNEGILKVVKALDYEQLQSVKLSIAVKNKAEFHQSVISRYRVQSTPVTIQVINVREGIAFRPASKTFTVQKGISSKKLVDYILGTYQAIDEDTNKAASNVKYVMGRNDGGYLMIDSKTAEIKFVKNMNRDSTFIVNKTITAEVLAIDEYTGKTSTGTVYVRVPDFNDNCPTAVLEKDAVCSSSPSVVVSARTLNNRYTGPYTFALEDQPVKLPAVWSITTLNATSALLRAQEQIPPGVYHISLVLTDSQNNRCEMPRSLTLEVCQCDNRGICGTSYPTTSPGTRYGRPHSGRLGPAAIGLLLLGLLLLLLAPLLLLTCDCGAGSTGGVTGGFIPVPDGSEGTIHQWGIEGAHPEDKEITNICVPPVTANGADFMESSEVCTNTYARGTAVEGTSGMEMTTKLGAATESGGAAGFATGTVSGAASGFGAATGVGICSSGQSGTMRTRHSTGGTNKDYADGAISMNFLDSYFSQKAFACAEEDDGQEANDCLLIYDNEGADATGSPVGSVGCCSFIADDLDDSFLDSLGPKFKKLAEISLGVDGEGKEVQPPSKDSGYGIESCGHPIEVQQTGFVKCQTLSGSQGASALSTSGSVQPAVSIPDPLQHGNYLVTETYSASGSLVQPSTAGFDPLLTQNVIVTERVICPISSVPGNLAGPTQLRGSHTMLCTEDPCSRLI

DLL1 = molecular target: T3, DLL1 (UniProt O00548 18-723, limits assumed); assay: co-immunofluorescence on HSC-4 cells
T3 construct: whole, on cells
T3 sequence (looked up): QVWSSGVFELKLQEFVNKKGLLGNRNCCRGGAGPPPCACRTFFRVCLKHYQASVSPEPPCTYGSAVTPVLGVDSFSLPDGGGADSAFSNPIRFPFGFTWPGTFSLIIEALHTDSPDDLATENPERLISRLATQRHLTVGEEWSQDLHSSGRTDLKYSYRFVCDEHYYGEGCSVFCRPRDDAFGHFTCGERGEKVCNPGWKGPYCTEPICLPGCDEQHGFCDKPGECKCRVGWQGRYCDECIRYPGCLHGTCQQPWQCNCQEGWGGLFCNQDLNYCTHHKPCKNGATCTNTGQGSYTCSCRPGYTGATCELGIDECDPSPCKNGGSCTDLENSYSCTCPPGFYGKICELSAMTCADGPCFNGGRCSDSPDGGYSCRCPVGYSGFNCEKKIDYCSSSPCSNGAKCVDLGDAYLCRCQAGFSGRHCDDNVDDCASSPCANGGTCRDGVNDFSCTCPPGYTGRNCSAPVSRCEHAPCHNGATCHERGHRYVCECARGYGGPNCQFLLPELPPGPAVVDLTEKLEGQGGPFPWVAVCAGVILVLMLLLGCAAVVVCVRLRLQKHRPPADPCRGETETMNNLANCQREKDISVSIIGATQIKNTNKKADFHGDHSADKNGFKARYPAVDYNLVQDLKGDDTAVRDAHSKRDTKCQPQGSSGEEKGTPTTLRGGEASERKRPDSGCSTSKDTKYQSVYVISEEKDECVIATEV

[1] = molecular target: T4, IL6Rα (Interleukin 6 Receptor α) (UniProt P08887 20-468, limits assumed); assay: cell-based or functional assay
T4 sequence (looked up): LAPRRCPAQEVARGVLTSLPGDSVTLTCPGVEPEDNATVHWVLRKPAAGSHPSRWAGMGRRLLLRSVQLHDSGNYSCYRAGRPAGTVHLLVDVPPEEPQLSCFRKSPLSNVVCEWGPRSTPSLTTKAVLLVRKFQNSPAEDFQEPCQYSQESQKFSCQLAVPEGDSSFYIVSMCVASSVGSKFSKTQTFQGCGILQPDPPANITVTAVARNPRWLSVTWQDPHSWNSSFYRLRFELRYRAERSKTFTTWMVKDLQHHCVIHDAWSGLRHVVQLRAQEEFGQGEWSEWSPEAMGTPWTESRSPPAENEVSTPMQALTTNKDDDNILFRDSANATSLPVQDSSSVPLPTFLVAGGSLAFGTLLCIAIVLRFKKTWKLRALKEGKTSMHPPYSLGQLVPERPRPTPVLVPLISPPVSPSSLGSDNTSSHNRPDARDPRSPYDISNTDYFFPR

T1 sequence (P30550 whole entry): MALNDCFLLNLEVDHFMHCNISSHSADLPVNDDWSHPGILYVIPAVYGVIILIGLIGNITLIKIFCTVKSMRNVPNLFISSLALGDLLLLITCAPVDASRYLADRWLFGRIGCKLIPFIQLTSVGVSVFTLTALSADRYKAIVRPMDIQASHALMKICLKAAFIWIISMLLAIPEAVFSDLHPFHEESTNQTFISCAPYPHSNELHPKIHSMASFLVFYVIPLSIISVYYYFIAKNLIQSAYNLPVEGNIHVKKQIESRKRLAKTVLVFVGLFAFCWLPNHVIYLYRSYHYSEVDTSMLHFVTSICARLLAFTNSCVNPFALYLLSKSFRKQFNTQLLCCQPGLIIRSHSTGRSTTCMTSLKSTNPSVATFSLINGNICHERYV

binding result (GRPR): no binding
binding result (DSG3): no binding
binding result (DLL1): no binding
growth inhibition of HSC-4 cells, MTT assay, IC50 [1]: 10.2 µM
growth inhibition of MDA-MB-231 cells, MTT assay, IC50 [1]: 4.5 µM
B1: SSTP1 (Temporin1Dau1) (peptide)
peptide: FLPLLISALTSLFPKLGK
modifications: not fully specified
notes: Chemically synthesized mature peptide of 18 residues from frog skin secretion; No C-terminal amide is printed for SSTP1; also called SSTP1-biotin; SSTP1-Alexa Fluor-488

— patent US20230270815A1 (RAJIV GANDHI CENTRE FOR BIOTECHNOLOGY, published 2023)
